Measurements as given in the supplement of paper PMC10567573.

B1: HSP90AB1 (parent)
chain: TLRQKAEADKNDKAVKDLVVLLFE

Variants of: B1
Test: protein stability index of a GFP-peptide fusion (GPS, HEK-293T) (PSI 1-6); higher = more stable
Conditions: c terminus: a fixed tail appended
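Further: lentivirally expressed fusions sorted by FACS into six bins by GFP to DsRed ratio, PSI derived from sequencing read proportions per bin multiplied by bin number.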

| Variant | protein stability index |
| --- | --- |
| TLRQKAVADKNDKAVKDLVVLLFE [E7V] | 2.63 |
| TLRQKASADKNDKAVKDLVVLLFE [E7S] | 2.67 |
| TLRQKAIADKNDKAVKDLVVLLFE [E7I] | 2.63 |
| TLRQKAAADKNDKAVKDLVVLLFE [E7A] | 2.67 |
| TLRQKAWADKNDKAVKDLVVLLFE [E7W] | 1.81 |
| TLRQKACADKNDKAVKDLVVLLFE [E7C] | 2.28 |
| TLRQKAMADKNDKAVKDLVVLLFE [E7M] | 2.48 |
| TLRQKAPADKNDKAVKDLVVLLFE [E7P] | 2.58 |
| TLRQKAEADKNDKAVKDLVVLLNE [F23N] | 4.73 |
| TLRQKAEADKNDKAVKDLVVLLWE [F23W] | 2.56 |
| TLRQKAEADKNDKAVKDLVVLLKE [F23K] | 4.69 |
| TLRQKAEADKNDKAVKDLVVLLTE [F23T] | 4.76 |
| TLRQKAEADKNDKAVKDLVVLLCE [F23C] | 3.71 |
| TLRQKAEADKNDKAVKDLVVLLRE [F23R] | 3.79 |
| TLRQKAEADKNDKAVKDLVVLLEE [F23E] | 5.22 |
| TLRQKAEADKNDKAVKDLVVLLME [F23M] | 3.37 |
| TLRQKAEADKNDKAVKDLVVLLLE [F23L] | 3.27 |
| TLRQKAEADKNDKAVKDLVVLLHE [F23H] | 4.5 |
| TLRQKAEADFNDKAVKDLVVLLFE [K10F] | 2.53 |
| TLRQKAEADENDKAVKDLVVLLFE [K10E] | 2.73 |
| TLRQKAEADQNDKAVKDLVVLLFE [K10Q] | 2.98 |
| TLRQKAEADLNDKAVKDLVVLLFE [K10L] | 2.61 |
| TLRQKAEADINDKAVKDLVVLLFE [K10I] | 3.06 |
| TLRQKAEADTNDKAVKDLVVLLFE [K10T] | 2.92 |

| Variant | protein stability index |
| --- | --- |
| TLRQKAEADRNDKAVKDLVVLLFE [K10R] | 3.29 |
| TLRQKAEADDNDKAVKDLVVLLFE [K10D] | 3.11 |
| TLRQKAEADVNDKAVKDLVVLLFE [K10V] | 2.57 |
| TLRQKMEADKNDKAVKDLVVLLFE [A6M] | 2.93 |
| TLRQKDEADKNDKAVKDLVVLLFE [A6D] | 3.41 |
| TLRQKPEADKNDKAVKDLVVLLFE [A6P] | 3.29 |
| TLRQKNEADKNDKAVKDLVVLLFE [A6N] | 2.61 |
| TLRQKKEADKNDKAVKDLVVLLFE [A6K] | 2.71 |
| TLRQKWEADKNDKAVKDLVVLLFE [A6W] | 3.32 |
| TLRQKCEADKNDKAVKDLVVLLFE [A6C] | 2.91 |
| TLRHKAEADKNDKAVKDLVVLLFE [Q4H] | 2.37 |
| TLRCKAEADKNDKAVKDLVVLLFE [Q4C] | 2.51 |
| TLRAKAEADKNDKAVKDLVVLLFE [Q4A] | 2.63 |
| TLRKKAEADKNDKAVKDLVVLLFE [Q4K] | 3.26 |
| TLREKAEADKNDKAVKDLVVLLFE [Q4E] | 3.39 |
| TLRSKAEADKNDKAVKDLVVLLFE [Q4S] | 3.21 |
| TLRFKAEADKNDKAVKDLVVLLFE [Q4F] | 2.58 |
| TLRYKAEADKNDKAVKDLVVLLFE [Q4Y] | 2.37 |
| TLRGKAEADKNDKAVKDLVVLLFE [Q4G] | 3.06 |
| TLRNKAEADKNDKAVKDLVVLLFE [Q4N] | 2.71 |
| TLRMKAEADKNDKAVKDLVVLLFE [Q4M] | 2.48 |
| TLRQKAEADKNAKAVKDLVVLLFE [D12A] | 2.44 |
| TLRQKAEADKNTKAVKDLVVLLFE [D12T] | 2.22 |
| TLRQKAEADKNGKAVKDLVVLLFE [D12G] | 2.48 |

| Variant | protein stability index |
| --- | --- |
| TLRQKAEADKNPKAVKDLVVLLFE [D12P] | 2.49 |
| TLRQKAEADKNEKAVKDLVVLLFE [D12E] | 2.95 |
| TLRQKAEADKNWKAVKDLVVLLFE [D12W] | 2.07 |
| TLRQKAEADKNSKAVKDLVVLLFE [D12S] | 3.17 |
| TLRQKAEADKNDKAVIDLVVLLFE [K16I] | 2.24 |
| TLRQKAEADKNDKAVVDLVVLLFE [K16V] | 3.65 |
| TLRQKAEADKNDKAVCDLVVLLFE [K16C] | 2.19 |
| TLRQKAEADKNDKAVPDLVVLLFE [K16P] | 2.65 |
| TLRQKAEADKNDKAVNDLVVLLFE [K16N] | 3.44 |
| TLRQKAEADKNDKAVADLVVLLFE [K16A] | 2.87 |
| TLRQKAEADKNDKAVHDLVVLLFE [K16H] | 3.29 |
| TLRQKAEADKNDKAVSDLVVLLFE [K16S] | 2.92 |
| TLRQKAEADKNDKAVFDLVVLLFE [K16F] | 3.28 |
| TLRQKAEADKNDKAVTDLVVLLFE [K16T] | 2.99 |
| TFRQKAEADKNDKAVKDLVVLLFE [L2F] | 2.65 |
| TPRQKAEADKNDKAVKDLVVLLFE [L2P] | 3.23 |
| TGRQKAEADKNDKAVKDLVVLLFE [L2G] | 3.13 |
| TNRQKAEADKNDKAVKDLVVLLFE [L2N] | 2.79 |
| TKRQKAEADKNDKAVKDLVVLLFE [L2K] | 2.26 |
| TRRQKAEADKNDKAVKDLVVLLFE [L2R] | 2.56 |
| TIRQKAEADKNDKAVKDLVVLLFE [L2I] | 3.16 |
| TERQKAEADKNDKAVKDLVVLLFE [L2E] | 3.01 |
| TMRQKAEADKNDKAVKDLVVLLFE [L2M] | 2.95 |
| TCRQKAEADKNDKAVKDLVVLLFE [L2C] | 3.12 |

| Variant | protein stability index |
| --- | --- |
| TLRQKAEADKNDKAGKDLVVLLFE [V15G] | 3.48 |
| TLRQKAEADKNDKADKDLVVLLFE [V15D] | 3.2 |
| TLRQKAEADKNDKASKDLVVLLFE [V15S] | 3.09 |
| TLRQKAEADKNDKAFKDLVVLLFE [V15F] | 2.91 |
| TLRQKAEADKNDKANKDLVVLLFE [V15N] | 3.12 |
| TLRQKAEADKNDKARKDLVVLLFE [V15R] | 2.49 |
| TLRQKAEADKNDKAAKDLVVLLFE [V15A] | 3.1 |
| TLRQKAEADKNDKAEKDLVVLLFE [V15E] | 3.37 |
| TLRQKAEADKNDKAYKDLVVLLFE [V15Y] | 3.43 |
| TLRQKAEAYKNDKAVKDLVVLLFE [D9Y] | 2.87 |
| TLRQKAEAPKNDKAVKDLVVLLFE [D9P] | 2.48 |
| TLRQKAEAIKNDKAVKDLVVLLFE [D9I] | 2.26 |
| TLRQKAEATKNDKAVKDLVVLLFE [D9T] | 2.35 |
| TLRQKAEAHKNDKAVKDLVVLLFE [D9H] | 2.95 |
| TLRQKAEAGKNDKAVKDLVVLLFE [D9G] | 3.17 |
| TLRQKAEACKNDKAVKDLVVLLFE [D9C] | 2.73 |
| TLRQKAEADKNDKAVKDLVALLFE [V20A] | 4.47 |
| TLRQKAEADKNDKAVKDLVMLLFE [V20M] | 3.77 |
| TLRQKAEADKNDKAVKDLVFLLFE [V20F] | 2.96 |
| TLRQKAEADKNDKAVKDLVHLLFE [V20H] | 3.43 |
| TLRQKAEADKNDKAVKDLVQLLFE [V20Q] | 4.1 |
| TLRQKAEADKNDKAVKDLVCLLFE [V20C] | 3.53 |
